The values that follow come from patent US20200164069A1 (BOSTON PHARMACEUTICALS, published 2020).

Sequences and labels used below:
B1: K44VHa-N56Q (MEDI7169) (antibody, V domains shown)
VH: QVQLVQSGAEVKKPGASVKVSCKASGYTFTDYWMHWVRQAPGQGLEWMGTIDPSDQYTIYSQNFKGRVTMTRDTSTSTVYMELSSLRSEDTAVYYCARYGFAMDYWGQGTLVTVSS
VL: DIQLTQSPSSLSASVGDRVTITCRASQDISNFLNWYQQKPGKAVKLLIYYTSRLHSGVPSRFSGSGSGTDYTLTISSLQPEDFATYYCQQGHTLPRTFGGGTKVEIK
B2: murine monoclonal antibody 9F11 (antibody, V domains shown)
VH: EVELVESGGGLVQPGGSMKLSCAASGFTFSDAWMDWVRQSPEKGLEWVAEIRSEADNHPTYYAESVKGRFTISRDDSKSSVYLQMNSLRAEDSGIYYCTEYDYEGFVHWGQGTLVTVSA
VL: DIVLTQSPASLAVSLGQRATISCRASKSVSTYGYSYMHWYQQKPGQPPKLLIYLASNLESGVPARFSGSGSGTDFTLNIHPVEEEDAATYYCQHSRELPLTFGAGTKLELK
notes: also called 9F11.1
B3: recombinant cynomolgus monkey IL-21 (ligand)
chain: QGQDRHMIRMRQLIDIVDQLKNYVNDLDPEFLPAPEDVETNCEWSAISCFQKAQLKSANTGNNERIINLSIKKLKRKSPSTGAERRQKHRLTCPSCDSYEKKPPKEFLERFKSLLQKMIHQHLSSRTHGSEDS
notes: also called cyno IL-21; cynoIL-21

For assay [1], the target named is T1, IL-21 (species not stated in the assay) (Homo sapiens (Human), UniProt Q9HBE4 25-162, Biotinylated in the competition ELISA of paragraph 259 (sites not given); unlabelled in the other results.). Kind of assay: cell-based or functional assay.
The target in assay [2] is T2, recombinant human IL-21 (human, UniProt Q9HBE4 30-162, limits assumed). In words: cell-based or functional assay.
The target in assay [3] is B3. Kind of assay: cell-based or functional assay.
The target of assay [4] is T2, recombinant human IL-21. In words: cell-based or functional assay. This is another data set of the same source.
In assay [5] the target is B3. In words: cell-based or functional assay. This is another data set of the same source.
The target in assay [6] is T2, recombinant human IL-21. Kind of assay: cell-based or functional assay. This is another data set of the same source.
Assay [7] addresses B3. Kind of assay: cell-based or functional assay. This is another data set of the same source.
For a further assay, the target named is IL-2 (UniProt P60568 21-153). In words: ELISA on plate-coated cytokine (2 µg/ml). Here is the method: (§1) ELISA was used to test cross reactivity of lead clones. Cytokines tested include 11-2, IL-4, IL-7, IL-9, and IL-15. Maxisorp ELISA plate (NUNC) was coated with 2 μg/ml of different cytokines in PBS at 4° C. overnight. The plate was then blocked with 3% BSA in PBST (PBS+0.1% Tween) at room temperature for one hour. Purified lead clone IgGs were serially diluted in PBST+3% BSA and the mixture was then added to each ELISA plate well and further incubated at room temperature for half an hour. After washing, secondary antibody-HRP was added to each well for 1 hour. Wells were washed first with PBST and then with PBS and the TMB solution from Pierce was added to detect the secondary antibody. After 5′ the reaction was stopped by the addition of 1N sulfuric acid. The plates were then read in an ELISA reader at 450 nm to detect the binding.

The next assay deals with T3, IL-4 (UniProt P05112 25-153).
T3 sequence (looked up): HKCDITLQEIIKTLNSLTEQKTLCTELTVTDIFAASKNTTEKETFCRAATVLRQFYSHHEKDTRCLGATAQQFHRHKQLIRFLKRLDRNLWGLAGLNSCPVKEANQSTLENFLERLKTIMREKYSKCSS
In words: ELISA on plate-coated cytokine (2 µg/ml). Here is the method:
as §1

A further assay has as its target T4, IL-7 (UniProt P13232 26-177).
T4 sequence (looked up): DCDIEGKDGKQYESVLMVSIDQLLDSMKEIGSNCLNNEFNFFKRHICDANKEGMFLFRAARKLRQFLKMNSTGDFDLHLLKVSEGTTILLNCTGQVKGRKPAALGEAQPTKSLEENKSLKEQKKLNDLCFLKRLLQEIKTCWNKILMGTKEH
Kind of assay: ELISA on plate-coated cytokine (2 µg/ml). Here is the method: as §1

The next assay deals with IL-15 (UniProt P40933 49-162). Kind of assay: ELISA on plate-coated cytokine (2 µg/ml). The procedure:
as §1

Assay [8] concerns the target T2, recombinant human IL-21. Kind of assay: KinExA 3000, solution-phase equilibrium, dual curve analysis. The procedure:
(§2) The IL-21-coated Azlactone bead slurries were diluted to 30 mL with instrument buffer (PBS, pH 7.4, 0.02% NaN3) in a bead vial and affixed to the KinExA instrument. A user-defined timing program was used to sequentially transfer the IL-21/Azlactone beads to a capillary flow cell in the instrument, and individual sample mixtures were injected over the IL-21-coated beads. Unbound sample solution was removed by washing the beads with instrument buffer. A 1- or 2-μg/mL solution of the DyLight649-labeled, goat-anti-hulgG(H+L) secondary reagent (Thermo Scientific) was passed over the beads to detect receptor (K44VHa-N56Q) that remained bound to the IL-21-coated beads. […] The amount of fluorescence that remained associated with the beads was measured, and the signal was converted to percent free receptor (K44VHa-N56Q). […] Once the data had been collected for all samples in each series (500 fM and 50 pM K44VHa-N56Q), an isotherm was generated, which plotted the amount of free K44VHa-N56Q detected at each concentration of IL-21. The resulting 2 binding curves were then evaluated in a dual curve analysis using the instrument's evaluation software (KinExA Pro Software, v. 2.0.1.26, Sapidyne) from which individual KDS for each interaction were derived.
(§3) The binding of K44VHa-N56Q to human and cynomolgus monkey IL-21 was measured by KinExA. […]

For assay [9], the target named is B3. The description is as above. The procedure:
as §2, §3

Assay [10] addresses T1, IL-21 (species not stated in the assay). Kind of assay: method not stated.
The target in assay [11] is T2, recombinant human IL-21. In words: cell-based or functional assay. This is another data set of the same source.
For assay [12], the target named is B3. Kind of assay: cell-based or functional assay. The source holds these as a separate data set.
Assay [13] addresses T2, recombinant human IL-21. In words: method not stated for this clone (Table 2, column Kd hu).
Assay [14] deals with B1. Kind of assay: KinExA solution-phase equilibrium titration: fixed 50 pM K44VHa-N56Q (MEDI7169) IgG, cynomolgus monkey IL-21 varied; free IgG captured on IL-21-coated beads (the competitor). Here is the method: as §2, §3
Assay [15] addresses B1. Kind of assay: KinExA solution-phase equilibrium titration: fixed 500 fM K44VHa-N56Q (MEDI7169) IgG, cynomolgus monkey IL-21 varied; free IgG captured on IL-21-coated beads (the competitor). The procedure:
as §2, §3

T1 sequence (Q9HBE4 25-162 limits assumed): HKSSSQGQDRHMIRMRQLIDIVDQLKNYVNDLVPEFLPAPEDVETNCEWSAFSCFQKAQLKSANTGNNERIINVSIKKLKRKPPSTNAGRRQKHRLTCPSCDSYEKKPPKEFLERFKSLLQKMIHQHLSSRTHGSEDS
T2 sequence (Q9HBE4 30-162 limits assumed, form in doubt): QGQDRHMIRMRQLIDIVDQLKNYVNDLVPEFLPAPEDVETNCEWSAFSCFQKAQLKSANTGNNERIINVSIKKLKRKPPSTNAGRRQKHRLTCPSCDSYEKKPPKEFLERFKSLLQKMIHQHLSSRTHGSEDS
Sequence of IL-2 (P60568 21-153 limits assumed): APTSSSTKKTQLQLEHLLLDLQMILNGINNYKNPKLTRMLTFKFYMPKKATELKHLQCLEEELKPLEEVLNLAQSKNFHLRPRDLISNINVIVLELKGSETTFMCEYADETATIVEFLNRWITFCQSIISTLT
Sequence of IL-15 (P40933 49-162 limits assumed): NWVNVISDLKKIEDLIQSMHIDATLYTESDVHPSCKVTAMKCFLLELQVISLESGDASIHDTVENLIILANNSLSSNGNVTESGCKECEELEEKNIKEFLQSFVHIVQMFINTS

Turning to B1, in assay [1], the “maximal inhibition in pSTAT3 assay” value turned out to be 100%. Further, the “IC50 in pSTAT3 assay (human PBMCs, 20 pM IL-21)” value with recombinant human IL-21 [2] stood at 17.2 pM; in assay [3] it was 19.3 pM. Further, the “IC50 in NK-92 cell assay (IFNγ, 200 pM IL-21)” value with recombinant human IL-21 [4] was 92.7 pM; in assay [5], 80.8 pM. Besides, the “IC50 in PC differentiation assay (2 nM IL-21)” value was 777 pM in the assay with recombinant human IL-21 [6] and 1060 pM in assay [7]. Moreover, the binding result with IL-2, with IL-4, with IL-7 and with IL-15 was “no binding” throughout. Further, the Kd turned out to be 0.515 pM in the assay with recombinant human IL-21 [8] and 0.352 pM in assay [9].

With B2, the Kd in [10] came out at 10000 pM; with recombinant human IL-21 [13], 9.99 pM. In addition, the entries for the “inhibition of IgG production by human B cells” value (in the assay with recombinant human IL-21 [11]; in assay [12]) were 97% and 79%, respectively. Besides, the “maximal inhibition in pSTAT3 assay” value in assay [1] worked out at 100%. The “IC50 in pSTAT3 assay (human PBMCs, 20 pM IL-21)” value was determined as 21.7 pM with recombinant human IL-21 [2] and 83.2 pM in assay [3]. Moreover, the “IC50 in NK-92 cell assay (IFNγ, 200 pM IL-21)” value with recombinant human IL-21 [4] came to 462 pM; in assay [5], 867 pM. Further, the entries for the “IC50 in PC differentiation assay (2 nM IL-21)” value (with recombinant human IL-21 [6]; in [7]) were 47300 pM and 74000 pM, respectively. The binding result with IL-2, in the assay with IL-4 and in the assay with IL-7 was “no binding” each time.

In the case of B3, the “IC50 (read off the curve)” value with K44VHa-N56Q (MEDI7169) [14] is approximately 60 pM; with K44VHa-N56Q (MEDI7169) [15] it was approximately 1 pM.
